We go through 56 variants from the RNAGym collection of RNA variant scans (doi:10.7554/elife.90254).

B1: LINE1-mini (parent)
chain: GGCAGAGCUCAACACAGCGUGGCAAAGUGGCUGUGGCUAGACUGCC

The variants in this data set derive from B1. The data set can be described thus: self-cleavage, relative activity (ratio to wild type); higher = more cleavage; in vitro, sequencing; the parent is a self-cleaving ribozyme.
Turning to GGCAGAGCUCAACACCGCGUGGCAAAGUGGCUGUGGCUAGAAUGCC, the self-cleavage was determined as 0.05.

For GGCAGAGCUCAACACCGCGUGGCAAAGUGGCUGUGGCUAGAUUGCC, the self-cleavage worked out at 0.06.

Turning to GGCAGAGCUCAACACCGCGUGGCAAAGUGGCUGUGGCUAGAGUGCC, the self-cleavage was 0.09.

In the case of GGCAGAGCUCAACACCGCGUGGCAAAGUGGGUGUGGCUAGACUGCC, the self-cleavage stood at 0.03.

With GGCAGAGCUCAACACCGCGUGGCAAAGUGGUUGUGGCUAGACUGCC, the self-cleavage amounted to 0.03.

Turning to GGCAGAGCUCAACACCGCGUGGCAAAGUGGAUGUGGCUAGACUGCC, the self-cleavage stood at 0.08.

On to GGCAGAGCUCAACACCGCGUGGCAAAGUGGCUGUGGAUAGACUGCC, for which the self-cleavage was 0.06.

In the case of GGCAGAGCUCAACACCGCGUGGCAAAGUGGCUGUGGUUAGACUGCC, the self-cleavage turned out to be 0.1.

In the case of GGCAGAGCUCAACACCGCGUGGCAAAGUGGCUGUGGGUAGACUGCC, the self-cleavage was determined as 0.02.

Regarding GGCAGAGCUCAACACCGCGUGGCAAAGUGUCUGUGGCUAGACUGCC, the self-cleavage turned out to be 0.05.

For the variant GGCAGAGCUCAACACCGCGUGGCAAAGUGACUGUGGCUAGACUGCC, the self-cleavage came to 0.14.

Take GGCAGAGCUCAACACCGCGUGGCAAAGUGCCUGUGGCUAGACUGCC: the self-cleavage was 0.12.

With GGCAGAGCUCAACACCGCGUGGCAAAGUGGCUGUGGCUGGACUGCC, the self-cleavage turned out to be 0.04.

Regarding GGCAGAGCUCAACACCGCGUGGCAAAGUGGCUGUGGCUCGACUGCC, the self-cleavage came to 0.02.

With GGCAGAGCUCAACACCGCGUGGCAAAGUGGCUGUGGCUUGACUGCC, the self-cleavage came out at 0.09.

With GGCAGAGCUCAACACCGCGUGUCAAAGUGGCUGUGGCUAGACUGCC, the self-cleavage worked out at 0.1.

Consider GGCAGAGCUCAACACCGCGUGACAAAGUGGCUGUGGCUAGACUGCC, for which the self-cleavage worked out at 0.1.

GGCAGAGCUCAACACCGCGUGCCAAAGUGGCUGUGGCUAGACUGCC: the self-cleavage was determined as 0.09.

Regarding GGCAGAGCUCAACACCGCGUGGCAAAGUGGCUGUCGCUAGACUGCC, the self-cleavage stood at 0.06.

With GGCAGAGCUCAACACCGCGUGGCAAAGUGGCUGUUGCUAGACUGCC, the self-cleavage is 0.03.

Regarding GGCAGAGCUCAACACCGCGUGGCAAAGUGGCUGUAGCUAGACUGCC, the self-cleavage was 0.06.

For the variant GGCAGAGCUCAACAUAGCGUGGCAAAGUGGCUUUGGCUAGACUGCC, the self-cleavage was determined as 0.37.

As to GGCAGAGCUCAACAUAGCGUGGCAAAGUGGCUCUGGCUAGACUGCC, the self-cleavage came to 0.09.

In the case of GGCAGAGCUCAACACCGCGUGGCAAAGUGGCUGUGGCUAAACUGCC, the self-cleavage stood at 0.05.

For the variant GGCAGAGCUCAACACCGCGUGGCAAAGUGGCUGUGGCUACACUGCC, the self-cleavage is 0.03.

For GGCAGAGCUCAACACCGCGUGGCAAAGUGGCUGUGGCUAUACUGCC, the self-cleavage came to 0.03.

As to GGCAGAGCUCAACAUAGCGUGGCAAAGUGGCAGUGGCUAGACUGCC, the self-cleavage came out at 0.09.

On to GGCAGAGCUCAACAUAGCGUGGCAAAGUGGCGGUGGCUAGACUGCC, for which the self-cleavage is 0.12.

With GGCAGAGCUCAACAUAGCGUGGCAAAGUGGCCGUGGCUAGACUGCC, the self-cleavage is 0.08.

As to GGCAGAGCUCAACACCGCGUGGUAAAGUGGCUGUGGCUAGACUGCC, the self-cleavage amounted to 0.45.

Turning to GGCAGAGCUCAACACCGCGUGGAAAAGUGGCUGUGGCUAGACUGCC, the self-cleavage turned out to be 0.12.

For the variant GGCAGAGCUCAACACCGCGUGGGAAAGUGGCUGUGGCUAGACUGCC, the self-cleavage was 0.08.

Take GGCAGAGCUCAACAUAGCGUGGCAAAGUGGCUGUGGCUACACUGCC: the self-cleavage is 0.07.

For the variant GGCAGAGCUCAACAUAGCGUGGCAAAGUGGCUGUGGCUAAACUGCC, the self-cleavage worked out at 0.14.

In the case of GGCAGAGCUCAACAUAGCGUGGCAAAGUGGCUGUGGCUAUACUGCC, the self-cleavage is 0.12.

As to GGCAGAGCUCAACAUAGCGUGGCAAAGUUGCUGUGGCUAGACUGCC, the self-cleavage was determined as 1.42.

In the case of GGCAGAGCUCAACAUAGCGUGGCAAAGUAGCUGUGGCUAGACUGCC, the self-cleavage was found to be 1.1.

Consider GGCAGAGCUCAACAUAGCGUGGCAAAGUCGCUGUGGCUAGACUGCC, for which the self-cleavage was 1.59.

As to GGCAGAGCUCAACAUAGCGUGGCAAAUUGGCUGUGGCUAGACUGCC, the self-cleavage worked out at 1.36.

GGCAGAGCUCAACAUAGCGUGGCAAACUGGCUGUGGCUAGACUGCC: the self-cleavage was 0.87.

In the case of GGCAGAGCUCAACAUAGCGUGGCAAAGUGGCUGUCGCUAGACUGCC, the self-cleavage was found to be 0.14.

On to GGCAGAGCUCAACAUAGCGUGGCAAAGUGGCUGUUGCUAGACUGCC, for which the self-cleavage was found to be 0.13.

With GGCAGAGCUCAACAUAGCGUGGCAAAGUGGCUGUAGCUAGACUGCC, the self-cleavage was 0.09.

GGCAGAGCUCAACACCGCGUGGCAAAGUGGCUGUGGCUAGACUGCU: the self-cleavage was found to be 0.08.

Take GGCAGAGCUCAACACCGCGUGGCAAAGUGGCUGUGGCUAGACUGCG: the self-cleavage worked out at 0.09.

As to GGCAGAGCUCAACACCGCGUGGCAAAGUGGCUGUGGCUAGACUGCA, the self-cleavage is 0.1.

Take GGCAGAGCUCAACACCGCGUAGCAAAGUGGCUGUGGCUAGACUGCC: the self-cleavage was determined as 0.14.

As to GGCAGAGCUCAACACCGCGUUGCAAAGUGGCUGUGGCUAGACUGCC, the self-cleavage was determined as 0.07.

As for GGCAGAGCUCAACACCGCGUCGCAAAGUGGCUGUGGCUAGACUGCC, the self-cleavage stood at 0.22.

With GGCAGAGCUCAACAUAGCGGGGCAAAGUGGCUGUGGCUAGACUGCC, the self-cleavage turned out to be 0.49.

Consider GGCAGAGCUCAACAUAGCGAGGCAAAGUGGCUGUGGCUAGACUGCC, for which the self-cleavage worked out at 0.92.

As to GGCAGAGCUCAACAUAGCGCGGCAAAGUGGCUGUGGCUAGACUGCC, the self-cleavage was 0.32.

Regarding GGCAGAGCUCAACACCGCGUGGCAAAGUGGCUGUGGCUAGACUGCC, the self-cleavage worked out at 0.11.

For GGCAGAGCUCAACACCGCGUGGCAAAGUGGCUGUGACUAGACUGCC, the self-cleavage worked out at 0.12.

As to GGCAGAGCUCAACACCGCGUGGCAAAGUGGCUGUGCCUAGACUGCC, the self-cleavage worked out at 0.04.

Regarding GGCAGAGCUCAACACCGCGUGGCAAAGUGGCUGUGUCUAGACUGCC, the self-cleavage amounted to 0.07.
